# Assay results taken from paper PMC5150216, “Actin activates Pseudomonas aeruginosa ExoY nucleotidyl cyclase toxin and ExoY-like effector domains from MARTX toxins” (Nature Communications, 2016).
# What was measured:
# [1] = molecular target: T1, α-actin from rabbit skeletal muscle (rabbit, UniProt P68135 1-377); assay: co-sedimentation; as a6, F-actin with 6 μM phalloidin; conditions: both partners purified
# [2] = molecular target: T1, α-actin from rabbit skeletal muscle; assay: co-sedimentation; conditions: both partners purified
binder,measurement,setting,value
"MBP-ExoY^K81M-ST (enzyme, also called His-MBP-ExoY^K81M-ST; source: expressed from pEA12 (Ptac promoter); purified under non-denaturing conditions (HisTrap, StrepTrap, Superdex 200); not shown: His-tag, N-terminal, kept; MBP, N-terminal, kept; Strep-tagII, C-terminal, kept) MRIDGHRQVVSNATAQPGPLLRPADMQARALQDLFDAQGVGVPVEHALRMQAVARQTNTVFGIRPVERIVTTLIEEGFPTMGFSVKGKSSNWGPQAGFICVDQHLSKREDRDTAEIRKLNLAVAKGMDGGAYTQTDLRISRQRLAELVRNFGLVADGVGPVRLLTAQGPSGKRYEFEARQEPDGLYRISRLGRSEAVQVLASPACGLAMTADYDLFLVAPSIEAHGSGGLDARRNTAVRYTPLGAKDPLSEDGFYGREDMARGNITPRTRQLVDALNDCLGRGEHREMFHHSDDAGNPGSHMGDNFPATFYLPRAMEHRVGEESVRFDEVCVVADRKSFSLLVECIKGNGYHFTAHPDWNVPLRPSFQEALDFFQRKV",Kd,[1],1600 to 1800 nM
same,Kd,[2],1600 ± 300 nM
same,stoichiometry N,[2],1
